Results: patent US9051555 (SALK INSTITUTE FOR BIOLOGICAL STUDIES, dated 2015)

Target: the molecule itself
Assay: X-ray crystallography, homodimer in the asymmetric unit

B1: isopentenyl phosphate kinase (IPK) from Methanocaldococcus jannaschii (enzyme)
chain: MLTILKLGGSILSDKNVPYSIKWDNLERIAMEIKNALDYYKNQNKEIKLILVHGGGAFGHPVAKKYLKIEDGKKIFINMEKGFWEIQRAMRRFNNIIIDTLQSYDIPAVSIQPSSFVVFGDKLIFDTSAIKEMLKRNLVPVIHGDIVIDDKNGYRIISGDDIVPYLANELKADLILYATDVDGVLIDNKPIKRIDKNNIYKILNYLSGSNSIDVTGGMKYKIEMIRKNKCRGFVFNGNKANNIYKALLGEVEGTEIDFSE
notes: The crystal holds a homodimer, two molecules in the asymmetric unit; also called IPK-Mjannaschii; IPK-Mj
Does B1 bind?
Result: binds
